Data published in publication PMC8599861 (2021).

How the values were obtained:
[1] = molecular target: T1, Depupylase Dop from Corynebacterium glutamicum, wild type (Corynebacterium glutamicum); test: ITC
T1 chain: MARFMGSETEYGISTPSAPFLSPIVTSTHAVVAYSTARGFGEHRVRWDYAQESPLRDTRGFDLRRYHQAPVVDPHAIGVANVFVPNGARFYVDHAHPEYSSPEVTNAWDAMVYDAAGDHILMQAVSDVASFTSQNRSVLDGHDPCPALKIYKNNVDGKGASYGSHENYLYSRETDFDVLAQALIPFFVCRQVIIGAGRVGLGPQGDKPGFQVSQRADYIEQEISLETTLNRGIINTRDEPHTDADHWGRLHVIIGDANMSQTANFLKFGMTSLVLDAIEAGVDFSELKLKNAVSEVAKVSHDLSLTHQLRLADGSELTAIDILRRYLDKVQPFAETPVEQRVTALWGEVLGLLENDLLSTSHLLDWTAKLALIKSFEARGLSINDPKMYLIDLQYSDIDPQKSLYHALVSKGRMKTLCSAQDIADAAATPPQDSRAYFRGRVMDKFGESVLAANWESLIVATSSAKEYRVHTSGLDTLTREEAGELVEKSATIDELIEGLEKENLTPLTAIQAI

[2] = molecular target: CgluDopGS, Dop-loop variant of Dop from Corynebacterium glutamicum (Dop-loop H43-I77 replaced with (GS)4) (Corynebacterium glutamicum); test: ITC

B1: Prokaryotic ubiquitin-like protein Pup from Corynebacterium glutamicum with C-terminal glutamate (natural protein)
chain: MNAKQTQIMGGGGRDEDNAEDSAQASGQVQINTEGVDSLLDEIDGLLENNAEEFVRSYVQKGGE
Work on B1 yielded a Kd [1] of 186 nM and a Kd [2] of 76 nM.
